# Data from patent EP4806514A2 (Lepu Biopharma Co., Ltd., dated 2025).
# Changes are numbered by the printed parent chain.
# T1: human CDH16 protein (hCDH16-his, Novoprotein, Cat. No. CJ16) (human, UniProt O75309 19-786)
# T1 construct: Bought; also called human CDH16-his
# T1 sequence (looked up): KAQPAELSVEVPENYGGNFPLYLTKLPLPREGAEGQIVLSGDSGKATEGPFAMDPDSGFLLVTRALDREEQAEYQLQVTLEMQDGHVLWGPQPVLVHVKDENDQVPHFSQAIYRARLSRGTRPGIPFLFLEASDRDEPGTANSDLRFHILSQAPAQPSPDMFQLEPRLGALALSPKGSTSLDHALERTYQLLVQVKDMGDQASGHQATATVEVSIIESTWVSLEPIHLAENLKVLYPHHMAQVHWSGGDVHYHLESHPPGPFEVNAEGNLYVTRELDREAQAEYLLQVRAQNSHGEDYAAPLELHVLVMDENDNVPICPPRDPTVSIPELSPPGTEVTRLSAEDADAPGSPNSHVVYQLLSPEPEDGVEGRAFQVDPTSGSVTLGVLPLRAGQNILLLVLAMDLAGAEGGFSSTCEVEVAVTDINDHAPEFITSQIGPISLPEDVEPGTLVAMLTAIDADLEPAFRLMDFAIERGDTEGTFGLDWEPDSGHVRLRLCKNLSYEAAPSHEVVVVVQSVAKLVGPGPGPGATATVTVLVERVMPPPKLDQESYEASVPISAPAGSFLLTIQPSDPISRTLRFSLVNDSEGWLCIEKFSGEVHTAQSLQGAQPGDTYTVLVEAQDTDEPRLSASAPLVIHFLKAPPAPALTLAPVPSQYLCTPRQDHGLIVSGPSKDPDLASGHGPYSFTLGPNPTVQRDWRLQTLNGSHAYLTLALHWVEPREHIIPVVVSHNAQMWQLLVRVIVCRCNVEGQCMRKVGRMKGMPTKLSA
# T2: hCDH17-his (full length extracellular domain of human CDH17, Q23-M787, his tag at the C-terminal) (human, UniProt Q12864 23-787)
# T2 construct: Limits of the construct (UniProt Q12864, Q23-M787, C-terminal his tag); also called human CDH17-his protein; human CDH17 protein
# T2 sequence: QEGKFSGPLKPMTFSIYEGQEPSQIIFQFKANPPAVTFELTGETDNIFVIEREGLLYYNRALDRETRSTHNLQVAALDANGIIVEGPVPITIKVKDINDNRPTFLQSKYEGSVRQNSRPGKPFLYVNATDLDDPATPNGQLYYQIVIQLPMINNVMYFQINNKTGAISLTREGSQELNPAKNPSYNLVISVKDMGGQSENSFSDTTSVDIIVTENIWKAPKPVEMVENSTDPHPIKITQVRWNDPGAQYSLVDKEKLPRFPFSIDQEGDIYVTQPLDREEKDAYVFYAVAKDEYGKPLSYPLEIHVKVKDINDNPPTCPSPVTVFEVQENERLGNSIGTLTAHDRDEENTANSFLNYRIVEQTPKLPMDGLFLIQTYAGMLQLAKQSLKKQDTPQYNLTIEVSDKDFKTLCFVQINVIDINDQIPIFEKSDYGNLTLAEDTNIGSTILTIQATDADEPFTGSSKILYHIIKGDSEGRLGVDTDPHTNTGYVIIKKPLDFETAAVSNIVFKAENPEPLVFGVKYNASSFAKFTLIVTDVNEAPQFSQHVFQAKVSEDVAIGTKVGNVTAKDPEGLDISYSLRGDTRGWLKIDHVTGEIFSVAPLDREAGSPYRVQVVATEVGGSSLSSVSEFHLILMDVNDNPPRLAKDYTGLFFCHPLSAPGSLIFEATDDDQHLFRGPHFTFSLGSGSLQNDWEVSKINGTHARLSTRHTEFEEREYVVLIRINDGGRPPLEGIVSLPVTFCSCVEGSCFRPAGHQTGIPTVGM
# T3: human CDH17, full length, expressed on cells (HEK293-hCDH17); AsPC-1, HCT-8, AGS, LoVo, KATO III, HT-29 tumor … (human, UniProt Q12864 23-832)
# T3 construct: also called human CDH17 expressed on tumor cells
# T3 sequence: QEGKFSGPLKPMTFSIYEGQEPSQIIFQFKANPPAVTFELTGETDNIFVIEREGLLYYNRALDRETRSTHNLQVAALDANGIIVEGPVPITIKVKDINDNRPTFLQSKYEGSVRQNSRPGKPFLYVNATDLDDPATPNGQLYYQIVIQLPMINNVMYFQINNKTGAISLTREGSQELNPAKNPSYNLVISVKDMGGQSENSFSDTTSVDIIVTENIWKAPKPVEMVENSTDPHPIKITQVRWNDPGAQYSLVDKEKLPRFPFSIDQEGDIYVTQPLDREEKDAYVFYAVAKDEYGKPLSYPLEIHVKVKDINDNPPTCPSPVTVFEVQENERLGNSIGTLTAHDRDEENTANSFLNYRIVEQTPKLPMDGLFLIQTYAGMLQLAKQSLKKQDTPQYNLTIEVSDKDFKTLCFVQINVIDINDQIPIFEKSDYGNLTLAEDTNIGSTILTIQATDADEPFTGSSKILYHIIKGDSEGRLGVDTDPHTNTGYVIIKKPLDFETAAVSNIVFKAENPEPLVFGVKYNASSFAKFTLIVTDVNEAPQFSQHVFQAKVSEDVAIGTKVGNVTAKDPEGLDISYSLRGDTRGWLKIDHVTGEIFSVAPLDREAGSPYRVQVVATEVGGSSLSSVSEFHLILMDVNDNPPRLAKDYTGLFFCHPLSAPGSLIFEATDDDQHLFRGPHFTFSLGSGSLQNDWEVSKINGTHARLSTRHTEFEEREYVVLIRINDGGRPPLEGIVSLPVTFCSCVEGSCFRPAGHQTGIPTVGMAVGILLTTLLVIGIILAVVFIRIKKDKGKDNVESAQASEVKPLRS
# B1: 61C7F12 chimeric mAb (antibody, V domains shown)
# VH: EVQLVESGGGLVKPGGSLKLSCAASGFTFSSYAMSWVRQTPEKRLEWVATINIGGSYTYYPDSVKGRFTISRDNAKNTLYLQMSSLRSEDTAMYYCARQEGRYWYFDVWGAGTTVTVSS
# VL: QIVLTQSPAIMSASLGERVTMTCTASSSVSSSYLHWYQQKPGSSPKLWIYSTSNLASGVPARFSGSGSGTSYSLTISSMEAEDAATYYCHQFHRSPYTFGGGTKLEIK
# notes: Mouse variable regions fused to human IgG1 constant region
# B2: 69E3H11 chimeric mAb (antibody, V domains shown)
# VH: QVQLQQPGAELVKPGASVKLSCKASGYTFTTYWMHWVKQRPGQGLEWIGEIDPSDSYANYNQKFKGKATLTVDKSSSTAYMQLSSLTSEDSAVYYCALYYGYGDWGQGTTLTVSS
# VL: EIVLTQSPTTMAASPGEKIIITCSVSSSISSIHLHWYQQKPGFSPKLLIYRTSNLASGVPTRFSGSGSGTSYSLTIGTMEAEDVATYYCQQGSNLPLTFGAGTRLELK
# notes: as for B1
# B3: 20C3E8 chimeric mAb (antibody, V domains shown)
# VH: QVQLQQSGAELARPGASVKLSCKASGYTFTSYGISWVKQRTGQGLEWIGEIYPRSGNTYYNEKFKGKATLTADKSSSTAYMELRSLTSEDSAVYFCSRLDYGTSPFDYWGQGTTLTVSS
# VL: NIVMTQSPKSMSMSVGERVTLSCKASENVGTFVSWYQHKPEQSPKLLIYGASNRYTGVPDRFTGSGSATDFTLTISSVQAEDLADYHCGQSYSYPYTFGGGTKLEIK
# notes: as for B1
# B4: 29H8D3 chimeric mAb (antibody, V domains shown)
# VH: QVQLQQSDAELVKPGASVKISCKVSGYTFTDHTIHWMKQRPEQGLEWIGYIYPRDGYTKYNEKFKDKATLTADKSSSTAYIQLNTLTSEDSAVYFCARFYYGYWYFDVWGTGTTVTVSS
# VL: DIVMTQAAPSVPVTPGESVSISCRSSKSLLRSNGNTYLYWFLQRPGQSPQVLIYRMSNLASGVPDRFSGSGSGTAFTLRISRVEAEDVGVYYCMQHLEYPFTFGAGTKLELK
# notes: as for B1
# B5: 67A11B11 chimeric mAb (antibody, V domains shown)
# VH: EIQLQQSGPELVKPGASVKVSCKASGYAFTTYNMYWVKQSHGQSLEWIGYIDPYNGVTIYNQKFKGTATLTVDKSSSTAYMHLNSLSSEDSAVYYCTITAATLDAMDYWGQGTSVTVSS
# VL: DIVMTQSHKFMSTSVGDRVSITCKASQNVATAVAWYQQKPGQSPKVLIYWTSTRHNGVPDRFTGSGSGTDFTLTISNVQSEDLADYFCQQYNSHPLTFGAGTRLELK
# notes: as for B1
# B6: 29H8D3-z12p15 (antibody, V domains shown)
# VH: QVQLVQSGAEVKKPGASVKVSCKASGYTFTDHTIHWMRQRPGQGLEWIGYIYPRDGYTKYNEKFKDRATLTADTSTSTAYMELRSLRSDDTAVYYCARFYYGYWYFDVWGQGTTVTVSS
# VL: DIVMTQSPLSLPVTPGEPASISCRSSKSLLRSNGNTYLYWFLQKPGQSPQVLIYRMSNLASGVPDRFSGSGSGTDFTLKISRVEAEDVGVYYCNQHLEYPFTFGQGTKLEIK
# notes: PTM-removed variant of 29H8D3-z12; VH is that of 29H8D3-z12
# B7: 29H8D3-z12p21 (antibody, V domains shown)
# VH: B6 VH
# VL: B6 VL with N94I
# notes: as for B6
# B8: 29H8D3-z12p17 (antibody, V domains shown)
# VH: B6 VH
# VL: B6 VL with N94G
# notes: as for B6
# B9: 29H8D3-z12p16 (antibody, V domains shown)
# VH: B6 VH
# VL: B6 VL with N94Q
# notes: as for B6
# Biological target: T1, human CDH16 protein (hCDH16-his, …)
# Assay: ELISA, hCDH16-his coated at 1 ug/mL
row,Binder,binding result
1,B1,no binding (tested: titrated from 100 nM)
2,B2,no binding (tested: titrated from 100 nM)
3,B3,no binding (tested: titrated from 100 nM)
4,B4,no binding (tested: titrated from 100 nM)
5,B5,no binding (tested: titrated from 100 nM)

# Biological target: T2, hCDH17-his (full length extracellular …)
# Assay: SPR (Biacore 8K), two doses, antibody captured on Protein A chip, hCDH17-his at 25 nM and 100 nM
row,binding result,Binder
1,binds,B6
2,binds,B7
3,binds,B8
4,binds,B9

# Biological target: T3, human CDH17, full length, expressed on …
# Assay: flow cytometry, HEK293-hCDH17 cells
row,binding result,Binder
1,binds,B1
2,binds,B2
3,binds,B3
4,binds,B5

# Biological target: T2, hCDH17-his (full length extracellular …)
# Assay: SPR (Biacore 8K), antibody captured on Protein A chip, hCDH17-his injected
row,binding result,Binder
1,binds,B1
2,binds,B2
3,binds,B3
4,binds,B5
